Test results published in patent publication US20180326084A1 (Genmab, published 2018).
Where two headings read alike, the source gives them in different places.

Columns and labels:
[1] = molecular target: T1, Homo sapiens AXL-Mus musculus Ig1 domain (p33-AXL-mIg1) (human-mouse chimera, UniProt P30530 8-894); assay: flow cytometry, 1 µg/mL antibody, transfected HEK293F cells
T1 construct: Expressed in HEK293F cells; also called hsAXL-mmIg1; hsAXL-mmIgl
T1 chain: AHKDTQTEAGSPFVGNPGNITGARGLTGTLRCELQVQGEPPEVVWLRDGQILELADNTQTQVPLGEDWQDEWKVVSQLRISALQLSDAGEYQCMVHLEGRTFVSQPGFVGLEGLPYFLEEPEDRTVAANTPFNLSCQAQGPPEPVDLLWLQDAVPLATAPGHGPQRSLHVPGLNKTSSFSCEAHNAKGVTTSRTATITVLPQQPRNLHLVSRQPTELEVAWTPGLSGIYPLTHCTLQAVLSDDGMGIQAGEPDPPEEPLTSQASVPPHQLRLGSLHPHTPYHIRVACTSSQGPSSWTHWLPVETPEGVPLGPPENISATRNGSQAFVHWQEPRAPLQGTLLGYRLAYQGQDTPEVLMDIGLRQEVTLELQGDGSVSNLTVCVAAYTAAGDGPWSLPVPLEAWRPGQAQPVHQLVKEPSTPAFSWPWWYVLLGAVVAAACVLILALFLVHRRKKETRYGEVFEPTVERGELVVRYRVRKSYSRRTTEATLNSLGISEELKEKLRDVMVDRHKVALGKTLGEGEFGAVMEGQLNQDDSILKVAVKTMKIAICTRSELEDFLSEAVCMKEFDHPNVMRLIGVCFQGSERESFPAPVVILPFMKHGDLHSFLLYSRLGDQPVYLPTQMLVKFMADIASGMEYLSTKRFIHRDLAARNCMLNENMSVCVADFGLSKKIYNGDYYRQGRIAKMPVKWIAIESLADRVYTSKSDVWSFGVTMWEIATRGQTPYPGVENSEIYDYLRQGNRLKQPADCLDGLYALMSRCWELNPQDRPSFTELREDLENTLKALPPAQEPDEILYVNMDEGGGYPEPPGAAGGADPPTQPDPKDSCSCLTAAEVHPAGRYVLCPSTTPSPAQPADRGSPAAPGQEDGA

[2] = molecular target: T2, Homo sapiens AXL-Mus musculus FN1 domain (p33-AXL-mFN1) (human-mouse chimera, UniProt P30530 26-894); assay: as above
T2 construct: Expressed in HEK293F cells; also called hsAXL-mmFN1; TH1021-mFN1
T2 chain: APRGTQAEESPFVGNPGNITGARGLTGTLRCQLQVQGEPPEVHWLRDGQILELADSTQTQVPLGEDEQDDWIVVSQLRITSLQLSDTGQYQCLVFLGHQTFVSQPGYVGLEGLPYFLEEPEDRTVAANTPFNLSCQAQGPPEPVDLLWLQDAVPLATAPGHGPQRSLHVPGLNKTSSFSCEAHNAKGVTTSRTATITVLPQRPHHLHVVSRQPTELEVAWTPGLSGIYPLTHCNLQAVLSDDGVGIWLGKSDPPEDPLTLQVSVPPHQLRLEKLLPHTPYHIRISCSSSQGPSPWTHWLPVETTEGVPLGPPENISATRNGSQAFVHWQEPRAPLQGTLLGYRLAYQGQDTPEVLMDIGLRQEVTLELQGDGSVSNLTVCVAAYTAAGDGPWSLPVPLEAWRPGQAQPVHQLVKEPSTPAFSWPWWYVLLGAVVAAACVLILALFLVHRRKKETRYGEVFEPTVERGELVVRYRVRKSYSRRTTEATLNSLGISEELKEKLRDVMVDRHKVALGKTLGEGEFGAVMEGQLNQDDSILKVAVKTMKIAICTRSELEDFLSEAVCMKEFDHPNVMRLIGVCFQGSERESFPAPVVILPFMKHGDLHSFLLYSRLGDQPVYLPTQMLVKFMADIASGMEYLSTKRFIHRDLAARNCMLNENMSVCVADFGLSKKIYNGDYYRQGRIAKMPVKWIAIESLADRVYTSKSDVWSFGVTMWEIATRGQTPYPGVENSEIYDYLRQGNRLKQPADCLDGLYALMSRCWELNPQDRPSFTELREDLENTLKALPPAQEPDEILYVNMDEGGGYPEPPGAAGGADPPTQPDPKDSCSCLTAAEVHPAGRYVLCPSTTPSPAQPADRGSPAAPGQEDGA

[3] = molecular target: T3, Homo sapiens AXL-Mus musculus FN2 domain (p33-AXL-mFN2) (human-mouse chimera, UniProt P30530 26-894); assay: as above
T3 construct: Expressed in HEK293F cells; also called hsAXL-mmFN2; TH1021-mFN2
T3 chain: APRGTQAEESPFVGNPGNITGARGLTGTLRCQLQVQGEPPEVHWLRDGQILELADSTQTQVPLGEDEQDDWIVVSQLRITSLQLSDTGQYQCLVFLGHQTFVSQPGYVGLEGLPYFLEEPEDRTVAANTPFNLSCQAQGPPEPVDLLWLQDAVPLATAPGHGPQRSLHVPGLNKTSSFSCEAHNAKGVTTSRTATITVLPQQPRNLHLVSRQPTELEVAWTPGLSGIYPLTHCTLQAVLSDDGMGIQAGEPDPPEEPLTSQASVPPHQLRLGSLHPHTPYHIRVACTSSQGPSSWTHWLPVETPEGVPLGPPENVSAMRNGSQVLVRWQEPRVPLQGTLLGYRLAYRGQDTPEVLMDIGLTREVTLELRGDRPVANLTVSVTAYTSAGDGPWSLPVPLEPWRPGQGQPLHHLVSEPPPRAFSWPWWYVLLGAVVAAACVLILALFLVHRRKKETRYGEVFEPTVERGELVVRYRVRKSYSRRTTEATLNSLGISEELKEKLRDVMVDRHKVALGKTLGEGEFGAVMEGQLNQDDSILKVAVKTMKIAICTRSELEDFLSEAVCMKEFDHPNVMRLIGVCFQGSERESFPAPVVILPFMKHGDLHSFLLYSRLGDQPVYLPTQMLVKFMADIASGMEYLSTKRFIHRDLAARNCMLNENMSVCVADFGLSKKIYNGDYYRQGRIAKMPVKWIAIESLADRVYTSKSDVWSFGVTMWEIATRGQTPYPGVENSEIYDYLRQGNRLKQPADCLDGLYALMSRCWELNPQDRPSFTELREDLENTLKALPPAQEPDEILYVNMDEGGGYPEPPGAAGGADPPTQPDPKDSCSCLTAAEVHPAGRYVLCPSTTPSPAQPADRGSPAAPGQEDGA

[4] = molecular target: T4, human AXL with a cynomolgus monkey extracellular domain (ECD) (cynomolgus monkey (Macaca …, UniProt P30530 26-894)); assay: flow cytometry, HEK293T cells with human AXL carrying cynomolgus ECD
T4 construct: Chimera on transfected HEK293T cells; also called cynomolgus AXL; cynomolgus AXL-ECD
T4 chain: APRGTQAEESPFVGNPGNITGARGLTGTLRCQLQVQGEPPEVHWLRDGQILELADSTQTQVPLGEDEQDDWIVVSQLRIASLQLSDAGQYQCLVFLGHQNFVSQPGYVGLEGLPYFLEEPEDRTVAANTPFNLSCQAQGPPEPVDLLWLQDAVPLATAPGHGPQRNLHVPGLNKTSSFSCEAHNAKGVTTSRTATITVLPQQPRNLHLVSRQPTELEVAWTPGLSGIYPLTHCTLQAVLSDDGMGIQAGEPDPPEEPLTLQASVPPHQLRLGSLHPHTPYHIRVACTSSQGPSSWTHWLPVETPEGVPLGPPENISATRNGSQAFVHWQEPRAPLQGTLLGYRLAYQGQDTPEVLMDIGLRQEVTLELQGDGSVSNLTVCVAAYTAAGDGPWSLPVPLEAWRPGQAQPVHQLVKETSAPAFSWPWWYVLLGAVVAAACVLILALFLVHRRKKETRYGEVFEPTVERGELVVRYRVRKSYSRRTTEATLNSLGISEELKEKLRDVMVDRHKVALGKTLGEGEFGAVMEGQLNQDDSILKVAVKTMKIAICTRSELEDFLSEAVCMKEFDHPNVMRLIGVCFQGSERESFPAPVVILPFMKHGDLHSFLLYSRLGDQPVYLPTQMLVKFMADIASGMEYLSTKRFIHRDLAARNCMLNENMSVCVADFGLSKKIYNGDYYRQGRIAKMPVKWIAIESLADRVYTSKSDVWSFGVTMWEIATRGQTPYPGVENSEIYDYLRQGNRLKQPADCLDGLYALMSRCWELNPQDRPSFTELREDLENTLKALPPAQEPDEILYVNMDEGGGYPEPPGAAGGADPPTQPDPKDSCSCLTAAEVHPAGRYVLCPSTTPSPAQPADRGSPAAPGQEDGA

human AXL (full length) [5] = molecular target: T5, human AXL (full length) (human, UniProt P30530 26-894); assay: flow cytometry, HEK293T cells with full-length human AXL
T5 construct: also called TH1021-AXL; TH1021-hAXL

AXLECDHis [6] = molecular target: T6, AXLECDHis (human, UniProt P30530 26-447); assay: BLI (Octet), IgG on anti-human Fc sensor, AXLECDHis analyte
T6 construct: theoretical mass 46 kDa used; also called extracellular domain (ECD) of human AXL (aa 1-447) with a C-terminal His tag; soluble recombinant AXL extracellular domain

AXLECDHis [7] = molecular target: T6, AXLECDHis; assay: as above; remark: listed apart in the source
human AXL (full length) [8] = molecular target: T5, human AXL (full length); assay: flow cytometry, HEK293T cells transiently transfected with human AXL
human AXL (full length) [9] = molecular target: T5, human AXL (full length); assay: flow cytometry, A431 cells, no Gas6
human AXL (full length) [10] = molecular target: T5, human AXL (full length); assay: flow cytometry, A431 cells pre-incubated with 10 µg/mL Gas6 (competitor)

B1: IgG1-AXL-171 (antibody, V domains shown)
VH: EVQLLESGGGLVQPGGSLRLSCAASGFTFSSYAMSWVRQAPGKGLEWVSDISVSGGSTYYADSVKGRFTISRDNSKNTLYLQMNSLRAEDTAVYYCAKEGYIWFGESLSYAFDIWGQGTMVTVSS
VL: not shown
[1]
  binding result: binds
[2]
  binding result: binds
[3]
  binding result: binds

B2: IgG1-AXL-183-N52Q (antibody, V domains shown)
VH: QVQLQQWGAGLLKPSETLSLTCAVYGGSFSGYYWSWIRQPPGKGLEWIGEIQQSGSTNYNPSLKSRVTISVDTSKNQFSLKLSSVTAADTSVYYCASGNWDHFFDYWGQGTLVTVSS
VL: DIQMTQSPSSVSASVGDRVTITCRASQGISSWLAWYQHKPGKAPKLLIYATSSLQSGVTSRFSGSGSGTDFTLTISSLQPEDFATYYCQQAKSFPWTFGQGTKVEIK
notes: Expressed as human IgG1,κ; also called IgG1-AXL-183-N520
[4]
  EC50: 0.324 µg/mL
Human AXL (full length) [5]
  EC50: 0.35 µg/mL
AXLECDHis [6]
  Kd: 24 nM
  koff: 0.001 s⁻¹
  kon: 42000 M⁻¹ s⁻¹
AXLECDHis [7]
  fold change of dissociation rate against wild-type IgG1-AXL-183: ~2.5 fold

B3: IgG1-AXL-148-A-vcDuo3 (antibody, V domains shown)
VH: EVQLLESGGGLVQPGGSLRLSCAASGFTFSSYAMTWVRQAPGKGLEWVSAISISGGSTFYADSVKGRFTISRDNSKNTLYLQMNSLRAEDTAVYYCRGYSGYVYDAFDFWGQGTMVTVSS
VL: DIQMTQSPSSLSASVGDRVTITCRASQGISNWLAWYQQKPEKAPKSLIYAASSLQSGVPSRFSGSGSGTDFTLTISSLQPEDFATYYCQQYNSYPLTFGGGTKVEIK
modifications: drug-linker on lysine(s); chain and position not given
notes: also called IgG1-AXL-148-vcDuostatin3; IgG1-AXL-148-vcDuo3
Human AXL (full length) [8]
  binding result: binds

B4: IgG1-AXL-183-A-vcDuo3 (antibody, V domains shown)
VH: QVQLQQWGAGLLKPSETLSLTCAVYGGSFSGYYWSWIRQPPGKGLEWIGEINQSGSTNYNPSLKSRVTISVDTSKNQFSLKLSSVTAADTSVYYCASGNWDHFFDYWGQGTLVTVSS
VL: DIQMTQSPSSVSASVGDRVTITCRASQGISSWLAWYQHKPGKAPKLLIYATSSLQSGVTSRFSGSGSGTDFTLTISSLQPEDFATYYCQQAKSFPWTFGQGTKVEIK
modifications: drug-linker on lysine(s); chain and position not given
notes: also called IgG1-AXL-183-vcDuostatin3; IgG1-AXL-183-vcDuo3
Human AXL (full length) [8]
  EC50 (read off the curve): ~0.2 µg/mL

B5: IgG1-AXL-511 (antibody, V domains shown)
VH: EVQLLESGGGLVQPGGSLRLSCAASGFTFSSYAMNWVRQAPGKGLEWVSGISGSGGHTYHADSVKGRFTISRDNSKNTLYLQMNSLRAEDTAVYYCAKDRYDILTGYYNLLDYWGQGTLVTVSS
VL: DIQMTQSPSSLSASVGDRVTITCRASQGISSWLAWYQQKPEEAPKSLIYAASSLQSGVPSRFSGSGSGTDFTLTISSLQPEDFATYYCQQYNSYPLTFGGGAKVEIK
notes: also called clone 511
Human AXL (full length) [9]
  EC50: 0.12 µg/mL
Human AXL (full length) [10]
  EC50: 0.3 µg/mL
  maximal binding in presence of Gas6 (% of binding in absence of Gas6): 93%
AXLECDHis [7]
  Kd: 23 nM
  koff: 0.0039 s⁻¹
  kon: 170000 M⁻¹ s⁻¹
